Measurements taken from the DeepSol protein solubility set.

Test: soluble on expression in E. coli; label from the status in PepcDB or PDB records

Row | Sequence | soluble on expression in E. coli
1 | MSLIISISNLSPKSNRSQTKDSQISKWSYFSDCILRSTGFPAEWIEKLCFHKTTTMFDLCYRTEQSLNELVERLKTLEQTCHIPSNARQDWQRIRKLVGKRKKVTDEFIHLMEQKGFDQSLTQEIESYERKRRLQEKNWTKARESFEAELAEKQLFLQEIYKNPRLQEAIFQQSPSMYKNAVVPYVHSSLQKRNTNIKRIERQLISYLQRLCTKNETTSFFGPIQYGVLTSEQQDIEYNFNQKETERRAFMPYWSIKVLAAQMKECDVFFPYLNVKLSYQYTKTGDSIHSPILEKMVKFPKPYADIIKHLTYENQSIEQLAKKLSQPVAWLAKKLRLLEKKRLILIEIPLSITEPDSLNELRSWILKIKDVEHPDLSLWQERLEWLWKVKQAYPYMTLGQKQELFHKLESTFTEWTGEQPRRLGGEIYADRNLLYEECHGPLNNIKIGGSIKHVLKQDVPKWLSICAKHGEQRRKQEQALAQEIFKMMYPNEDSVPFLKFVHDLSNHPDVHTWEKRWQSIKTEIEEAITHEVASNPKSVVHLSLDYQDFDRDMAWLTSPDLMIAKKDDDSYQVILGEIHDTIMVWGWALQFHPEKDRVNEQLVKKIQKSTQHLRMLNMLSSKRFKIVPFEYPGTTIQMNSFSNSPNEKIPLSQLKVTYTKEGLALTLPDHEEVFYTYNGELNTMVHSFFSLPRAVSFSIRTGESTPRLMLGDLVVQRAKWHISKQDVWSKKHTGSSIELFYEAYRFHLKESLPKEGFAKLPGQPKPVYVNFTSYFLIEMLEGLWPDGENCTFSEMLPNLSELWLSKEDQKTHTAEIRLSYFVERSEGHHHHHH | soluble
2 | MIDFGNFYSLIAKNHLSHWLETLPAQIANWQREQQHGLFKQWSNAVEFLPEIKPYRLDLLHSVTAESEEPLSAGQIKRIETLMRNLMPWRKGPFSLYGVNIDTEWRSDWKWDRVMPHLSDLTGRTILDVGCGSGYHMWRMIGAGAHLAVGIDPTQLFLCQFEAVRKLLGNDQRAHLLPLGIEQLPALKAFDTVFSMGVLYHRRSPLEHLWQLKDQLVNEGELVLETLVIDGDENTVLVPGDRYAQMRNVYFIPSALALKNWLKKCGFVDIRIADVSVTTTEEQRRTEWMVTESLADFLDPHDPGKTVEGYPAPKRAVLIARKP | not soluble
3 | KRRIRQLELQVRMLEADKERLERELSRLRSEMSRLRQPPAFAGSVIEVLDDDRAIVQNYNGPRFVVRIAPWIDKSKLRPGTRVALDQRTMAIIEILPASKDPAVLGFEVVERPN | not soluble
4 | MGSDKIHHHHHHMSAVLYSNLKFLRFKDQLDALAGGTVAPPVHIRIKPTNRCNHKCWYCAYRTDDLKLGEDMDESDLIPEAKMMEIADDIVAMGVKAVTFSGGGEPLLYKPLPEVIDRLAAGGVRVATLTNGANLKGKVAQSLARHATWVRVSVDAWDDDSYVSSRGAKAGEFTKLLENMKAFVETGTKCVLGVSFIAGKDNYHRLSEVCARFKAIGVNHVKLSAAVVGNSVDENNRYHREFAEGARAEIERAKALSGDGFSVLDHFHEMESRFEKDYHRCPFLQFLTVIGADQTVYTCQDKAYTKEGTLGSIRGRSFRDYWFSEENRQRMAEFDPSRLCRHHCVSHSKNQAIMQYLSIDSEHGLFV | not soluble
5 | MWPSNRGPTLFQYSIRCLGFVAFIGVVRCHCPHMMGVKPPGPPSGPSPPGKFPDGDEGWDYDETAAPGIVPEPHFIQSTYIYRSPNVQEKTFSSRVVNVLKDIRTRLAKSARLTLENENIECSSPTDHYRCQEYPASGTWNYLIVEDQQKGAVTYTFDRKFNEKNDGTIEMALLDAFSRHSPSSLIAFASSEAEKEVGYIRALTVQEMDSLSGKRSHQKISMEKFGPNELILLEPALLEVRTGANLKLNSDSLRRIDSTKEFDKLLEEFRNVFILFWNSNRMVSLHTFNLWSRVADKIKISEDTLLAHVPCHDNADFCQGLNSEDYHTVVSYRNGQNTGKTENIGDVEFYENWVELSLSGAIQRLPNESKLSEFKKGIVGGKKRSSVTIGVFPSDQDTSFQHFQIAAEKLSGKYYVAYFINENSKPAITTYRHAEKQKRTDYSGKFDPATLMEFITKSSIPSIIGISNGFTTDLLFHQKRPILIQIGGAGEFEPFSKLSARQDARKTYIFTKIDGESEMIKKTKKALGVGENESIIVFLNKDRVHRIPISKPKCPDHLQKILQMIITSEADQVLSTKEPHPLRYLQVEKVNEVFGFEETLVLPDHTLFLDSDPFSRHPPITEGGGGGCPFMQGGGAPTESSQHSEL | not soluble
6 | MSEDIGVTRFREYLRVNTEQPKPDYEACRDFLFKYADELGIERRSVETAPGTYFVIMTIPGSKPDLPSIMLYSHTDVVPTFREYWTHDPYSAFKDEDGNIFARGAQDMKCVGVQYMEALRNWFAKGVKQWTRTIHIVWGPDEEIGHINGMKGFAVTEEFKKLNIDFALDEGIATEDDVYKIFYAERIPWWVKVTLPGHPGHGSKFIEKTAIEKLHKLIASVDEFRNEQKSLLAEHPEWTVGDVTTSNITIINGGVQVNVVPEKFEAYIDIRVTPLQDLDAVLARVDQWAKEAGEGVTYEFMQFSNFKLISPNTREDPFWAAIDDALQKEGCKYKKEIFIGATDSRFVRAQGIRAIGFSPIINTPSLLHDHNEFLNEKTFLRGVEIYETLINKLANVN | not soluble
7 | GHMDVGERSSDQGTTVLTEAQRIDWMRLIRAENVGPRTFRSLINHFGSARAALERLPELARRGGAARAGRIPSEDEARREIEAGRRIGVELVAPGETGYPTRLATIDDAPPLLGVHALPEALAVMARPMIAIVGSRNASGAGLKFAGQLAADLGAAGFVVISGLARGIDQAAHRASLSSGTVAVLAGGHDKIYPAEHEDLLLDIIQTRGAAISEMPLGHVPRGKDFPRRNRLISGASVGVAVIEAAYRSGSLITARRAADQGREVFAVPGSPLDPRAAGTNDLIKQGATLITSASDIVEAVASILERPIELPGREPEHAPPEGEPDTGDRTRILALLGPSPVGIDDLIRLSGISPAVVRTILLELELAGRLERHGGSLVSLS | soluble
8 | MDSIPLEKPHVVSLIGGFGYREPIFRKVLTTAMLDPGINYTLISGPSLDPSKLGGVPKNVRILNFVEDTYPYIKSSDAVIAPGGHSTIMEALSFGVPILSFPDEGHSEQESNAAVVEEEGYGRMLSYSTPPEVILECIREVIEDEAYRNKVERLQRLSGELEHHHHHH | soluble
9 | VPQIDTRDCGPAVLASVAKHYGSNYSIAYLRELSKTNKQGTTALGIVEAAKKLGFETRSIKADMTLFDYNDLTYPFIVHVIKGKRLQHYYVVYGSQNNQLIIGDPDPSVKVTRMSKERFQSEWTGLAIFLAPQPN | not soluble
10 | MSLILENEVIWDPERYVLGNYIQNKINDVFLKTIHSKLSGNILDIGCGDGHYTSLLAGKVKHGQILGIDSSEQMIMHANQQWARTGLSFEVHNIEEFHQPQSFDLVLSFWCLHWTNIHISFPNIFHLLKREGKLYAVMSSFSDHSILQTWKELAKQNLYRDLTKQYISPINEQYFYGVINLLNRLPFKRIKLDLKTCRVHLPHIDYYKNLLLTMPFIKRVPSEITDTLVEDMLKAFQTICDRKYGGELYYETRPIFLEAIKEGHHHHHH | not soluble
11 | MATSKLQAIWNHPAGPKTIHFWAPTFKWGISIANIADFAKPPEKLSYPQQIAVTCTGVIWSRYSMVINPKNWNLFSVNVAMAGTGIYQLARKIKHDYATEAEPAVASE | soluble
12 | MNKIFLTAAALVLGACGFHLKGADGISPPLTYRSWHIEGGQALQFPLETALYQASGRVDDAAGAQMTLRIDSVSQNKETYTVTRAAVINEYLLILTVEAQVLKRGEPVGKPMTVSVRRILDYADNEILGKQEEEETLWAEMRQDVAEQIVRRLTFLKAELEHHHHHH | soluble
13 | MCLVKDKLKDIISVKSALSFSLKGDFDCPLEENSLFKALQILKNFLKSKNFSHSVIKSLDTLAIEVEKNIPTQAGLGGGSTDAGGLLYHLNQIFDWRLSLEELYSMGSLVGADTNFFISQYKSTNATSYGEVIENFEEEPLENRLEIYAPNHVFCSTKAVYQAYKPETCFSQAKEWLKKPSLECLKTYDRNGLNDLLKPALLTNQALKDIESELGKEWFFSGSGSAFFRLKPMQKGGELEHHHHHH | not soluble
14 | MAHHHHHHMLQQLNEEKNIRKALESRIREVNVSLRRYGVCIADAKEVTNESREFSEATDAFILAALEEKDTMDGDLCAKLQQQLRVKQRLTELRHQHQRKLDDMLRKYELIKTGRTTANNGAGADNNMLHPGLVDEAAAQQIKELLHRKDEEIERVIKEKEKTCDRIVKKLNKCELRIKELEATLEEERVQSTEERQELDRENRELQRYNQQLSVELETLRGQLSEMKEEMDFMERAKSAEIERWKEEAANGAGRLEEMRFKMAAYSELQKSYDRLQEQLQRTEVSLKEKSDNLENTRQMVKWSNSLLATEKQKVEQMEMMLKQQEVEMRRREEQLKSEMMNDINKQVAANNRRMQEQAAQYQELISQEQDKQKSIMKKVKSSRKETQKAAQRYDEMILENEALLSKLEELKVTSMRIFLEKQEAQRELEALRPTKHVANRRL | not soluble
15 | MSLAEKLPFRVKKHQSKLLKKLGETDMQLQYNKVDNLKIVVSKINGMIIHPGETFSFCKTVGLPTRKKGYKEGMELSFGKPRAGVGGGICQSTNLLHWLALHSPLTITERHHHSIDPFPDNGRVLPWASGAAVFYNYIDFQLTNDTSWAFQINLWLTDKLLEGEIRVNEELDFAYHVKERNHRFIKKEGAYFRTNEIWRHKIAKFRSGALLEEELMYKNYGKVMYVPKTYQEGHHHHHH | soluble
16 | MKKVVTVCPYCASGCKINLVVDNGKIVRAEAAQGKTNQGTLCLKGYYGWDFINDTQILTPRLKTPMIRRQRGGKLEPVSWDEALNYVAERLSAIKEKYGPDAIQTTGSSRGTGNETNYVMQKFARAVIGTNNVDCCARVCHGPSVAGLHQSVGNGAMSNAINEIDNTDLVFVFGYNPADSHPIVANHVINAKRNGAKIIVCDPRKIETARIADMHIALKNGSNIALLNAMGHVIIEENLYDKAFVASRTEGFEEYRKIVEGYTPESVEDITGVSASEIRQAARMYAQAKSAAILWGMGVTQFYQGVETVRSLTSLAMLTGNLGKPHAGVNPVRGQNNVQGACDMGALPDTYPGYQYVKDPANREKFAKAWGVESLPAHTGYRISELPHRAAHGEVRAAYIMGEDPLQTDAELSAVRKAFEDLELVIVQDIFMTKTASAADVILPSTSWGEHEGVFTAADRGFQRFFKAVEPKWDLKTDWQIISEIATRMGYPMHYNNTQEIWDELRHLCPDFYGATYEKMGELGFIQWPCRDTSDADQGTSYLFKEKFDTPNGLAQFFTCDWVAPIDKLTDEYPMVLSTVREVGHYSCRSMTGNCAALAALADEPGYAQINTEDAKRLGIEDEALVWVHSRKGKIITRAQVSDRPNKGAIYMTYQWWIGACNELVTENLSPITKTPEYKYCAVRVEPIADQRAAEQYVIDEYNKLKTRLREAALA | soluble
17 | MGSDKIHHHHHHMTVHWRERVGNQRDWVWRGWRTRYTYIRPSQEGQEKTPLILLHGFGASIGHWRHNLEVLGESHTVYALDMLGFGGSEKAPANYSIELWVEQVYDFWRAFIRQPVVLIGNSNGSLISLAAAAAHPDMVKGIVMMSLPDPSLEQEMIPPFLRPVVTTIKNIVASPIFLKPVFYFVRRPSILRRWAGIAYANPAAITDELVDILAGPPQDRGSARAFSALFKAAIGVNFSPSVKAILPTLQIPMLLIWGNKDRFVPPILANQFAQYNEKLQLLNLDDVGHCPHDECPEQVNKAILAWMDKSLGDY | not soluble
18 | MHERLNFPKVELHLHLDGAVRFDTLIDLSQQKGIPLAGAKTVEELKKVLVTHEPANLSKVLEAFEIFLPVIRGDLAAIERVAYELCEDQHNNGVVYFEGRYSPHLLLCNDYPEVTAAHVVAAVKKGFDRGEKQFGIKARSILCCIRGLDKKFPQLILDLATDLKQLGVVAIDVAGSAHGADEQYEPEVVAAFQEAHKRGIHRTVHAGESGGPKEVIKAIEDMYAERIGHGYRVMRDEEMYLEHFVNSKNVHLEACPYSSVMTGAVPLDWKNHPIARWAKDDVNFSVSRDDPTCFDNSMLSELTLVHKQIGLDVHQLWKAQLNAARSCFLPEDEKAELVKRVEAGEPPRP | not soluble
